Holding throughout (assay type): biochemical
The nature of data set [1]: Specific activity of purified endoglucanases. The conditions noted are these: purified to homogeneity; pH 5.6 and 50° C.; CMC as substrate. The procedure:
FIG. 2 represents Table 2 which contains the data obtained by purification of endoglucanases of seven clones (pBKRR.1, 9, 11, 13, 14, 16 and 22) with respect to the specific activity. […] They were purified to homogeneity and their specific activity was estimated at pH 5.6 and 50° C., using CMC as substrate.
The endoglucanases were recovered from 1-liter shaked flask fermentations, in Luria-Bertany broth plus 50 μg of Kanamycin per ml. One gram of fermentation broth was mixed with 10 ml of standard buffer in a 50-ml Falcon tube. The solution was vortexed and then incubated with DNase I grade II, for 30-45 min, and then sonicated for 4 min total time. A sample of the soluble fraction was separated from insoluble debris by centrifugation (10,000×g, 30 min, 4° C.) and proteins were precipitated by addition of 80% chilled acetone (−20° C.). Proteins were resuspended in standard buffer and stored at −20° C. at a concentration of 5 mg/ml until use. The amount of protein expression was examined using SDS-PAGE with 10-12% acrylamide. […] The gel region containing the active cellulase, detected in a parallel track by activity staining (using Ostazin brillian-blue carboxymethyl cellulose) was excised, suspended in two volumes of standard fuffer and homogenized in a glass tissue homogenizer. […]
The standard cellulase activity was determined in a continuous spectrophotometric assay by measuring the release of reducing sugars from the 4% (wt/vol carboxymethyl cellulose (CMC) in 0.5-ml reaction mixtures containing 50 mM sodium acetate buffer, pH 5.6, at 40° C., using the dinitrosalycilic acid (DNS) method (Bernfeld, P. (1955) Amilases and b. In: Colowick S P, Kaplan N O (eds). Methods in Enzymology, Academic Press, New York pp. 133-155). The reaction was performed in 0.5 ml scale containing 20 mg substrate and 5 mg lyophilised cells or 0.1 mg purified enzyme. Reactions were allow to proceed for a time period of 5-30 min after which the samples were centrifuge (10,000×g, 3 min). […] Finally, each well was diluted with 150 μl water and the absorbance at 550 nm was measured. […]

Data set [2] can be described thus: pH-dependent activity and pH stability. To be noted: cell lysates; CMC; pH 3.5 to 10.5 at 40° C. The procedure:
(§1) FIG. 3 represents Table 3 giving an overview over the biochemical properties of the cellulases according to the invention. Reaction was performed at the optimum pH and temperature for each done using CMC as substrate. […] The values for clones pBKRR.1, 9, 11, 13, 14, 16 and 22 are depicted. For each clone the following data are given: • maximum pH at which the remaining activity after 24 h incubation at the indicate pH is >90% (column “Stable at pH”). […] Activity was measured after 2 h incubation and compared with a control reaction in buffer lacking dimethylsulfoxide, • detergent resistance given by the remaining activity in the corresponding buffer (optimum pH) containing the indicate detergent at a concentration for 0 to 3%. […]
(§2) FIG. 4 a-c represent the results of the determination of pH and temperature optima showing graphically views of the pH-dependence activity and temperature-dependence activity of the polypeptides according to the invention. The pH optima of rumial endoglucanases were measured under conditions described in Example 5: 4% CMC, 0.5 mL of 50 mM buffer at the corresponding pH and 0.1 mg E. coli cell lysates, for 5-30 min, at 40° C. Effect of temperature on endoglucanase activity was measured in 50 mM sodium acetate buffer pH 5.6. […]

The nature of data set [3]: Thermal activity and thermostability. To be noted: at the pH optima; CMC. The procedure: as §1, §2
A short description of data set [4]: Cation dependence. The conditions noted are these: 10 to 100 mM. The procedure:
FIG. 3 represents Table 3 giving an overview over the biochemical properties of the cellulases according to the invention. Reaction was performed at the optimum pH and temperature for each done using CMC as substrate. […] The values for clones pBKRR.1, 9, 11, 13, 14, 16 and 22 are depicted. For each clone the following data are given: • maximum pH at which the remaining activity after 24 h incubation at the indicate pH is >90% (column “Stable at pH”). […] Activity was measured after 2 h incubation and compared with a control reaction in buffer lacking dimethylsulfoxide, • detergent resistance given by the remaining activity in the corresponding buffer (optimum pH) containing the indicate detergent at a concentration for 0 to 3%. […] The effect of mono- (Na^+, K^+, NH4^+, and divalent cations (Ca^2+, Mn^2+, Mg^2+, Sr^2+, Fe^2+, Cu^2+, Ni^2+, Co^2+, Zn^2+) was first examined by treating the enzyme with chelating agents (EDTA and EGTA) to remove any endogenous divalent cations, followed by adding cations to the reaction mixture.
[…] Inhibitors such as N-ethylmalemide, iodoacetate and p-chloromercuribenzoate at concentration from 1-5 mM were incubated in the presence of the enzyme for 30 min (30° C.) prior to the addition of the substrate (CMC). The effects of detergents on the endoglucanase activity was analysed by adding of 1-3% (wt/vol) detergent to the enzyme solution. In all cases, the enzyme activity was assayed in triplicate using the standard cellulose assay described above and the residual activity was expressed as percent of the control value (without addition of chemicals).

Data set [5] in a line: TLC analysis of hydrolysis products. To be noted: pH 5.6, 50° C. The source says: FIG. 7 depicts the result of thin layer chromatography TLC analysis of products of CMC hydrolyzed by endoglucanases derived from a rumial genomic DNA library. The methods used for cellulase and substrate preparation, hydrolysis, TLC, and visualization are described in Example 5. The hydrolysis products glucose, cellobiose, cellotriose are shown an the right side. […] Different pattern was found when using short-chain beta-1,4-glucans.
The products formed by hydrolysis of cellulose-based substrates (cellobiose, cellotetraose, cellopentaose, cellulose and carboxymethyl cellulose) were analysed by thin-layer chromatography (TLC). Solutions containing 20 μg of E. coli cell lysate proteins and 0.2% (wt/vol) substrate in 50 mM acetate buffer (pH 5.6) were incubated at 50° C. until maximum conversion was achieved. The reactions were terminated by heating the preparation for 5 min at 95° C. and hydrolysis products were separated by TLC on silica gel plates (Merck, Darmstadt, Germany) by using a mixture chloroform, glacial acetic acid, and water (6:14:1) as the solvent. […] Sugars were visualized by heating 105° C. for 15 min the plates which were previously sprayed with a reagent containing amine (2 ml), diphenylamine (2 g), acetone (100 ml) and 85% H3PO4 (15 ml).

B1: pBKRR.11: rumen endo-beta-1,4-glucanase, sequences FIG. 14/22 (protein)
chain: MRILKLFFIALITAAPIFSYAQTVDDMKSVFVDAHTWTASIKMGWNLGNALECQTGWNDKAFCWNPANNFNAETSWGNPKTTKEMLQAVREAGFDAVRIPVNWGAHISDESTCTIDAAWMNRVQEVVDWALQLGFKVLLNTHHEYWLEWHPTYDREQANNNKLAKIWMQVANRFKDYGPDLAFAGINEVHLDGKWNVPTEENTAVTNSYNQTFVNTVRATGGNNLYRNLVVQCYSCNPDYGLTGFVVPADKVENRLSIEYHYYRPWDYAGDAPKYYYWGEAYKQYGEVSTADNEAKVNADFARYKAAWYDKGLGVIMGEWGASQHYQVESKAKQLENLYYHFKTVREAAQKNNIATFVWDNNACGNGGDKFGIFDRNDNMSVAFPEALNAIQEASGQTVVDYSRQALQPSVVYQGDELMNWGEGKQLIIAGSKFAYFTAESKLMVTLDAEPGADYDMLQFAYGDWKSKPLMIISGRSYKGQVEPSKINGSRNTYTLFIGFKESSLNQLKDKGITLQGHGLRLRNVVVMPEGLVLGL
modifications: Description of sequence sequence derived from genomic DNA library from rumen ecosystem, particularly amino acid sequence of clones pBKRR 11, 10 and 12; RR10=RR11=RR12; (see Figure 22)
In data set [1], B1 yielded a specific activity of 6.42 µmol/min/mg. For the same molecule, in data set [2], the “pH of highest (maximal) activity” value worked out at 4.5 pH. For the same molecule, the “temperature of improved activity and thermostability” value in data set [3] was 50 °C. Further, the “stimulatory effect of Mg^2+” value in data set [4] (chloride salt) is recorded as 127%. Besides, in data set [4] (chloride salts, after EDTA and EGTA treatment), the “influence of mono- and divalent cations on activity” value is on record as “not influenced”. In data set [5], the “main hydrolysis products of CMC” value was “cellobiose and cellotriose”.

The record behind these values is patent US20080261267A1, “Cellulases from Rumen” (priority 2004, published 2008).
